Assay results taken from article PMC12586476, “Molecular mechanism and structural models of protein-mediated copper transfer to the Arabidopsis thaliana ethylene receptor ETR1 at the ER membrane” (Scientific Reports, 2025).

T1: ETR1_GAF^1–316 (truncation of the Arabidopsis thaliana ethylene receptor ETR1 containing the transmembrane … (Arabidopsis thaliana, UniProt P49333 1-316, AlexaFluor 488-NHS (amine-reactive dye) label))
T1 construct: Membrane protein kept in Fos-Choline-14; source: E. coli C41(DE3)∆ompF∆acrAB, membranes solubilized in Fos-Choline-14, purified (Ni-NTA IMAC)
T1 sequence (looked up): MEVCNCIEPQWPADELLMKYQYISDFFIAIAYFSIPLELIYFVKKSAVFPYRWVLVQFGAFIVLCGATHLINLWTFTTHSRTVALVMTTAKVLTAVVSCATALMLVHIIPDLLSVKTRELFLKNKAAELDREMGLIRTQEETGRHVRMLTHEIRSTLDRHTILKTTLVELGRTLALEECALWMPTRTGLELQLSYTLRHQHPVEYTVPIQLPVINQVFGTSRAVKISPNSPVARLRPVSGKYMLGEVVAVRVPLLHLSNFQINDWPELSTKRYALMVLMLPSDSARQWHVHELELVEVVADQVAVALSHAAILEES

T2: Arabidopsis copper chaperone CCH (Arabidopsis thaliana, UniProt O82089 1-121, AlexaFluor 488 label)
T2 construct: Copper chaperone CCH, Arabidopsis thaliana
T2 sequence (looked up): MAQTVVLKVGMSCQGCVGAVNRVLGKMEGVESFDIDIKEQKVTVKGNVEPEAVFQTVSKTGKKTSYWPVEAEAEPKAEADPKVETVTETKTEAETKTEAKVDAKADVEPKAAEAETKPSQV


What was measured:
[1] = target: Arabidopsis copper transport protein ATX1 (Arabidopsis thaliana); assay: MST; AlexaFluor488-labelled ATX1 or CCH 100 nM, MBDs titrated (MBD1 300 µM to 0.19 nM, MBD2 100 µM to 0.19 nM, MBD3 100 µM to 0.06 nM); 300 mM NaCl, 50 mM HEPES pH 7.2 with Tween20 and glycerol; room temperature; initial fluorescence analysed; one-site binding model; apparent KD
[2] = target: T1, ETR1_GAF^1–316 (truncation of the …); assay: MST; AlexaFluor488-labelled ETR1_GAF 50 nM, MBDs titrated 100 µM to 24.4 nM; 300 mM NaCl, 50 mM HEPES pH 7.2 with Fos-Choline-14 and glycerol; room temperature; thermophoresis with T-jump; one-site binding model; apparent KD; conditions: both partners purified
[3] = target: T2, Arabidopsis copper chaperone CCH; assay: MST; AlexaFluor488-labelled ATX1 or CCH 100 nM, MBDs titrated (MBD1 300 µM to 0.19 nM, MBD2 100 µM to 0.19 nM, MBD3 100 µM to 0.06 nM); 300 mM NaCl, 50 mM HEPES pH 7.2 with Tween20 and glycerol; room temperature; initial fluorescence analysed; one-site binding model; apparent KD; conditions: both partners purified

Row | Binder | Kd [1] [µM] | Kd [2] [µM] | Kd [3] [µM]
1 | RAN1 metal binding domain 2 (MBD2) (domain or fragment, Arabidopsis thaliana, UniProt Q9S7J8 132-207, looked up, Copper-transporting P-type ATPase RAN1 (HMA7), Arabidopsis thaliana, MBD2, AA 132-207; Cloned into pETEV16b (pET-16b derivative with a TEV site); no tag cleavage is described; also called HMA7 MBD2; source: E. coli BL21 Gold (DE3), purified (Ni-NTA IMAC, SEC)) TLVGQFTIGGMTCAACVNSVEGILRDLPGVKRAVVALSTSLGEVEYDPNVINKDDIVNAIEDAGFEGSLVQSNQQD | 0.239 | 22.3 ± 12.1 | 2.28 ± 0.99
2 | RAN1 metal binding domain 1 (MBD1) (domain or fragment, Arabidopsis thaliana, UniProt Q9S7J8 55-130, looked up, Copper-transporting P-type ATPase RAN1 (HMA7), Arabidopsis thaliana, MBD1, AA 55-130; Cloned into pETEV16b (pET-16b derivative with a TEV site); no tag cleavage is described; also called HMA7 MBD1; source: E. coli BL21 Gold (DE3), purified (Ni-NTA IMAC, SEC)) LRKIQVGVTGMTCAACSNSVEAALMNVNGVFKASVALLQNRADVVFDPNLVKEEDIKEAIEDAGFEAEILAEEQTQ | 0.155 | 13.3 ± 4.4 | 3.16 ± 0.684
3 | RAN1 degenerate metal binding domain 3 (MBD3) (domain or fragment, Arabidopsis thaliana, UniProt Q9S7J8 205-283, looked up, Copper-transporting P-type ATPase RAN1 (HMA7), Arabidopsis thaliana, MBD3, AA 205-283; Cloned into pETEV16b; also called HMA7 MBD3; source: E. coli BL21 Gold (DE3), purified (Ni-NTA IMAC, SEC); not shown: His tag (deca-histidine), N-terminal, kept) QQDKLVLRVDGILNELDAQVLEGILTRLNGVRQFRLDRISGELEVVFDPEVVSSRSLVDGIEEDGFGKFKLRVMSPYER | 0.105 | 8.3 ± 6.6 | 0.0885 ± 0.0782
